Reference: patent US20240026407A1, “MODIFICATION OF SAPONINS” (GLAXOSMITHKLINE BIOLOGICALS SA, priority 2020, published 2024)

Legend:
[1] = Example 9: screening of rhamnosidase variants for derhamnosylation of saponins in crude bark extract; format: biochemical, Quillaja saponaria; settings: 18 h, CBE 75% v/v, 100 mM Sodium acetate pH 5.8
Method: Libraries of genetic variants encoding mutations in the wild type Kribbella flavida rhamnosidase (SEQ ID No. 1017) were prepared using molecular biology techniques, enzymes were prepared linked to a C-terminally located His-tag. Single monoclonal colonies were grown in 400 ul of expression medium and protein expressed. Cell pellets were lysed in 200 ul of the relevant buffer (Table 17).
Lysate was diluted appropriately in the relevant buffer to allow a lysate loading of the indicated % loading (1% loading corresponds to use of 2 ul original lysate in a 200 ul reaction).
Crude bark extract (CBE) obtained by aqueous extraction of Quillaja saponaria and containing at least 2.80 mg/ml QS-21 (by HPLC-UV) was adjusted to pH 6 by dropwise addition of 2M NaOH with stirring. The relevant concentration of the relevant glucosidase was added. The appropriate relative volume of pH 6 CBE (160 ul (for 80%) or 150 ul (for 75%)) was added to each well of the reaction plate. The reaction plate was sealed and incubated at the relevant temperature and time.
The reaction plate was quenched by adding 200 uL of MeCN (2% AcOH, 1 mg/mL hexanophenone) to each well of the plates. The quenched reaction plate was re-sealed and incubated at 20 deg C. with shaking for 10 min. The reaction plate was then centrifuged (10 min, 4 degC).
200 uL was transferred from each well of the quenched plate to the corresponding wells of a fresh 96 well plate and sealed. The plate was analysed by UV HPLC with the method described in Example 4.
Three key peaks of interest are apparent using this chromatography: Left Peak (retention time approximately 2.30-2.35 min) comprising mainly QS-17 family components; Middle Peak (retention time approximately 2.37-2.42 min) comprising mainly QS-18 family components and desglucosyl-QS-17 family components; and Right Peak (retention time approximately 2.44-2.50 min) comprising mainly QS-21 family components. Peak identity was supported by MS/MS.
Enzyme activity is calculated as the % conversion of the Left Peak present in the crude bark extract: […]

[2] = Example 10: derhamnosylation of saponins in crude bark extract (50%) using WT and engineered rhamnosidases R1 to R5; format: biochemical, Quillaja saponaria; settings: 7 h, 50% CBE, 35 degC; for % Right Peak: starting CBE 26; for % Left Peak: starting CBE 30; for % Middle Peak: starting CBE 44
Method: Lyophilised powders from clarified cell lysate expressing glucosidases (from Example 8 WT glucosidase and engineered glucosidase polypeptides G1 to G5) and rhamnosidases (from Example 9 WT rhamnosidase and engineered rhamnosidase polypeptides R1 to R5) were dissolved in 200 mM sodium acetate aqueous solution at pH 5.8 to prepare the enzyme solutions at 4 fold the final reaction concentration as shown in Tables 19 and 20.
Each rhamnosidase solution was combined with an equal volume of 200 mM sodium acetate aqueous solution at pH 5.8 and separately with an equal volume of 200 mM sodium acetate aqueous solution at pH 5.8 containing 2 mg/ml glucosidase G5. This is a sufficient loading of glucosidase to effect complete hydrolysis of the relevant glucose moiety within 4 hours.
CBE was adjusted to pH of 6.0 to 6.2 with 2M sodium hydroxide and an equal volume added to the enzyme solution to prepare the reaction mix (i.e. 50% CBE concentration in reaction mix) and the concentration of glucosidase and/or rhamnosidase is shown in Tables 19 and 20. The reaction mix was heated to 35 degC for the time indicated in Tables 19 and 20, after which the reaction was quenched by addition of an equal volume of MeCN containing 2% acetic acid and shaken at room temperature for 10 mins prior to centrifugation (10 min, 4 degC) to remove particulates. Samples were analysed by UV HPLC using method of Experiment 4-4.
The change in composition of the Left, Middle and Right peaks is shown in Tables 19 and 20. The composition changes by the action of the enzymes depending on the presence or absence of the partner enzyme. The extent of reaction is proportional to the enzyme concentration and the reaction time under these conditions. The tables show data for enzyme concentrations and the reaction times providing for equivalent extents of reaction. The improvement resulting from the mutations introduced for each variant is equal to the fold change in enzyme concentration×time (i.e. fold improvement=(enzyme concentration×time) for preceding variant÷(enzyme concentration×time) for later variant). A cumulative fold improvement over the original enzyme variant is calculated by the product of the individual fold improvements.

[3] = rhamnosidase 0.63 mg/ml + glucosidase G5 0.5 mg/ml
[4] = rhamnosidase 0.63 mg/ml, no glucosidase

B1: Variant R3: engineered rhamnosidase polypeptide, variant of Kribbella flavida rhamnosidase SEQ ID No. 1017 (protein)
chain: MSFPAAPARLRFEHRTDPGPVLGIGTATPRLSWQVPTAPDDYRQAGYEVEIARGDAAPEQYTVDSADQVLVPWPGTPLAARESATVRVRVRGDGDWSQWSDPATVEAGLLSADDWTARFVSPRENAGHEAPAPLIGGVIDLPPDIAQARLYATAHGIYEPTLNGTRVGDEQLAPGWTAYEQRLRYQTYDVTDLVAPGENRLELLVGNGWYRGRMGFHGGHSLYGDRLAVLAQLEVTTATGEVKVLASDGTWTTRETNVLADDLYDGQHVDLRRTLGEPGPVDVLDADLSLLVAPDGPPVRVTDVLPAKAVTTSPAGKTLVDFGQNVVGRLRLRVRGGAAGDEIVLRHAEVLEDGELCVRPLRTAKATDSFVLAGPDEVTLEPTLTFHGFRYAEITGVPDLRAEDVEAVVVGSDLRRTGWFESSHPLLDRFHENVVWGMRGNFLDVPTDCPQRDERLGWTGDIQVFSPTASFLFDTAGFLTNWLADLIAEQHKDGSVPFVVPDVLRQPGPATAAWGDAATIVPWVLYERTGDAGLLARQLPSMRAWVDRMAGLAGDDLLWVGGFQFGDWLDPTAPPDDPFRAKADPDVLATAHLARSAEVVALAAEVVGAGELAREYAELAARVRQAFAAEYTTGSGRVLSDAATNYALALQWALLPTEAQRKRAGERLADLVRTAGFRISTGFVGTPLMADALADSGHPDLAYRLLLETGCPSWLYAVTMDATTVWERWDSMLPDGSINPGQMTSFNHYALGAVADWMHRRVAGLAPGDPGYRRIVVDPLFTAHLTKASARHLTPYGEAAVAWSRSGGRVRLEVTVPVGARARVAVPGESAPVEVGHGTHEWTADDVYGETPPLPADATIRQLIDHEPSWTTLAAAATRTGIVADDAELAGRLERYLDHPATELVDAVSPRGFSPSAEALHAELDSVLGR
modifications: Seq ID No. 1017 with mutations A143P, L214M, K219G, Q921H, G357C
[1]; R3 round: 35 deg C, lysate 0.4% v/v
  % conversion (Right peak/Left Peak) (−neg control): 13.06%
[1]; R3 round: 35 deg C, lysate 0.4% v/v, estimate
  Cumulative FIOP from WT: 9.4
[1]; R3 round: 35 deg C, lysate 0.4% v/v, negative control 26.60
  Right Peak %: 29.45%
[1]; R3 round: 35 deg C, lysate 0.4% v/v, negative control 28.91
  Left Peak %: 18.85%
[1]; R3 round: 35 deg C, lysate 0.4% v/v, negative control 44.49
  Middle Peak %: 51.70%
[1]; R3 round: 35 deg C, lysate 0.4% v/v, negative control 47.91
  % conversion (Right peak/Left Peak): 60.97%
[1]; R3 round: 35 deg C, lysate 0.4% v/v, positive control R2
  FIOP (% area increase variant/pos control): 3.3
[1]; R4 round: 35 deg C, lysate 0.125% v/v
  % conversion (Right peak/Left Peak) (−neg control): 2.16%
[1]; R4 round: 35 deg C, lysate 0.125% v/v, negative control 26.09
  Right Peak %: 26.56%
[1]; R4 round: 35 deg C, lysate 0.125% v/v, negative control 29.62
  Left Peak %: 27.65%
[1]; R4 round: 35 deg C, lysate 0.125% v/v, negative control 44.29
  Middle Peak %: 45.79%
[1]; R4 round: 35 deg C, lysate 0.125% v/v, negative control 46.84
  % conversion (Right peak/Left Peak): 49.00%
[2]; [3]
  % change in Left Peak: −38%
  % change in Middle Peak: −99%
  % change in Right Peak: 311%
  Cumulative Fold improvement in primary enzyme loading × time: 8
  Fold improvement in primary enzyme loading × time: 2.0
  % Right Peak: 81%
  % Left Peak: 19%
  % Middle Peak: 0%
[2]; [4]
  % change in Left Peak: −45%
  % change in Middle Peak: 21%
  % change in Right Peak: 116%
  Cumulative Fold improvement in primary enzyme loading × time: 8
  Fold improvement in primary enzyme loading × time: 2.0
  % Right Peak: 30%
  % Left Peak: 16%
  % Middle Peak: 53%
